± gives the standard deviation of the averaged measurements.
System: Saccharomyces cerevisiae
Assay: protein stability index of tFT-peptide fusion (C-terminal peptide) (PSI (0-1 scale)); higher = more stable (slower turnover)
Settings: genetic background: wild type; temperature: 30 C
Experimental: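 Multiplexed protein stability (MPS) profiling in S. cerevisiae. Random 12-aa peptides (tFT-X12 library) are fused to the C-terminus of a sfGFP-mCherry tandem fluorescent timer, after mCherry and a GGGS linker. Cells are FACS-sorted into 8 mCherry/sfGFP bins and deep-sequenced. The protein stability index (PSI) is the read-weighted bin average, scaled from 0 (unstable) to 1 (stable). Only peptides with >10 reads are reported; cells were grown at 30 °C in SC-His with glucose.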
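Further: PSI is a weighted mean of sequencing reads over stability bins, variants kept only with over 10 reads, mCherry proximal and sfGFP distal, peptide attached via GGGS linker.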

## TCVLYSSGFIYF
  protein stability index: 0.665 ± 0.065

## VSPDVYGVCLRL
  protein stability index: 0.703 ± 0.081

## GFGPPGPCSYVR
  protein stability index: 0.691 ± 0.042

## VRTHRVRARAVE
  protein stability index: 0.685 ± 0.019

## GGGSVGMWGWWV
  protein stability index: 0.625 ± 0.075

## PPSPRPPPSPPP
  protein stability index: 0.7 ± 0.039

## DGGSEIWGWDGT
  protein stability index: 0.743 ± 0.12

## TRGRGDGQLDSA
  protein stability index: 0.699 ± 0.024

## PHLWSLPHATTA
  protein stability index: 0.684 ± 0.051

## GGVLLPGFSHLL
  protein stability index: 0.7133 ± 0.0068

## LGWDGSRRRPGL
  protein stability index: 0.727 ± 0.14

## TYLCLLVRDNRG
  protein stability index: 0.706 ± 0.012

## GGGGSFLVGLGL
  protein stability index: 0.647 ± 0.056

## NRVHLPELAFIT
  protein stability index: 0.662 ± 0.014

## DRNGAQAEISFV
  protein stability index: 0.6 ± 0.041

## PPPLPPPYPPPP
  protein stability index: 0.627 ± 0.016

## ISVLSIFVDSFV
  protein stability index: 0.528 ± 0.0062

## NTMVPPTGSGNA
  protein stability index: 0.732 ± 0.13

## SPGFSPPFPPLS
  protein stability index: 0.776 ± 0.011

## HKGKELTNNAML
  protein stability index: 0.678 ± 0.039

## QFTFPPGTSAPV
  protein stability index: 0.66 ± 0.032

## NKHDGRKWARYK
  protein stability index: 0.6494 ± 0.00069

## PPACAHPLFWTL
  protein stability index: 0.6499 ± 0.00087

## CCCVGRGVGSRF
  protein stability index: 0.703 ± 0.0054

## KECTWRQGKYNA
  protein stability index: 0.752 ± 0.089

## CRLANEIMYDKN
  protein stability index: 0.685 ± 0.014

## SCPSFVWLSFPQ
  protein stability index: 0.7142 ± 0.0056

## SPPLPSPPTLRL
  protein stability index: 0.701 ± 0.015

## SGLPRLLLVILP
  protein stability index: 0.6104 ± 0.0031

## LFPHPGPHHPSV
  protein stability index: 0.716 ± 0.016

## LTHLPSLCVRRI
  protein stability index: 0.647 ± 0.06

## SPPLPARSQSSI
  protein stability index: 0.708 ± 0.029

## DQNRSTTVPRGY
  protein stability index: 0.686 ± 0.075

## DTALMQAGSLFH
  protein stability index: 0.651 ± 0.054

## PRSLPSFHPPFH
  protein stability index: 0.658 ± 0.074

## THPPPGPHPSAA
  protein stability index: 0.717 ± 0.017

## NKKETRKQKTKK
  protein stability index: 0.673 ± 0.017

## GGSALGCLCRWM
  protein stability index: 0.823 ± 0.029

## FMFFMGLFVGGW
  protein stability index: 0.5401 ± 0.0026

## MGYNSRHLDISM
  protein stability index: 0.677 ± 0.018

## GRRPPWRFSFPF
  protein stability index: 0.769 ± 0.063

## STWSLLKVGPAR
  protein stability index: 0.6785 ± 0.0015

## SWQSRISLRIST
  protein stability index: 0.648 ± 0.041

## WEEKLEGTPTGG
  protein stability index: 0.72 ± 0.072

## PPSSPLRRRTTS
  protein stability index: 0.725 ± 0.078

## RGALGVVWAGLD
  protein stability index: 0.638 ± 0.021

## ILFKSTRAICSL
  protein stability index: 0.621 ± 0.051

## SCLVWTWVSSVL
  protein stability index: 0.573 ± 0.067

## VYLSSSLFPPSS
  protein stability index: 0.804 ± 0.042

## TRNGQKVGGVGA
  protein stability index: 0.725 ± 0.029

## WGAGRGGAFFSG
  protein stability index: 0.6576 ± 0.0062

## PPRSSLNPDLTQ
  protein stability index: 0.695 ± 0.1

## LPPPLPPRPSPP
  protein stability index: 0.728 ± 0.089

## GEGRRQIKEEHV
  protein stability index: 0.6842 ± 0.0042

## IATDGARCACDP
  protein stability index: 0.688 ± 0.022

## PPHPLSLSLRPP
  protein stability index: 0.634 ± 0.034

## RVGQDGFRVAGC
  protein stability index: 0.594 ± 0.12

## LLLARWASFIMS
  protein stability index: 0.685 ± 0.01

## EFDCVGCFRTLR
  protein stability index: 0.6618 ± 0.0017

## GWRACGRGLVGK
  protein stability index: 0.712 ± 0.011

## ESHSIIRRRSWW
  protein stability index: 0.7797 ± 0.0037

## EIRGGYMGEWRE
  protein stability index: 0.691 ± 0.082

## WLAIFFFSLSPF
  protein stability index: 0.525 ± 0.055

## SPPPPTLPPAYL
  protein stability index: 0.6577 ± 0.0025

## PPVSPPPSRHPL
  protein stability index: 0.719 ± 0.04

## ISCWHGYAKESS
  protein stability index: 0.671 ± 0.039

## RLLPAPPPPTRP
  protein stability index: 0.693 ± 0.036

## HVTSTRGARRPS
  protein stability index: 0.715 ± 0.019

## DDSFNPWSVRVH
  protein stability index: 0.7154 ± 0.006

## TPPPNTPSPLTI
  protein stability index: 0.654 ± 0.033

## APPPPPRISAWL
  protein stability index: 0.745 ± 0.012

## SSGAIKPDFRMA
  protein stability index: 0.7446 ± 0.005

## GGVATQARQTCN
  protein stability index: 0.742 ± 0.17

## AEGCHIRVHWGV
  protein stability index: 0.7265 ± 0.0066

## ANKIRMKYMRTG
  protein stability index: 0.6139 ± 0.0027

## WFRPPSVPEEEY
  protein stability index: 0.728 ± 0.048

## LPPPPRPPPPPP
  protein stability index: 0.663 ± 0.021

## GLAAGGAVMPPL
  protein stability index: 0.7188 ± 0.0064

## SQTIRTGGLCHL
  protein stability index: 0.886 ± 0.041

## ESRNEPDQRLCQ
  protein stability index: 0.686 ± 0.013

## RTCPSPSAHLRL
  protein stability index: 0.741 ± 0.0085

From the supplement of paper PMC10724198
